Results from patent US20200255474A1.

Biological target: HA-tagged PHB2 alanine mutant at Ser39 (S39A) (human) (UniProt Q99623)
Test: anti-HA IP of nuclear extracts of transfected SK-BR-3 cells after 1 µM stERAP, immunoblot

reduction rate of binding against WT: 82%
Substance: NcoR, O75376 1-2440
